According to the supplement of paper PMC10126150:
± gives the standard deviation of the averaged measurements.

Test system: ATP
Assay: switch fluorescence ratio, 500 uM ATP over buffer (Cy3 cluster intensity, sum of 5 cycles each) (fold (ratio)); higher = stronger signal-on switching upon ATP binding; sequences stand for … in TCGTCGGCAGCGTCAGATGTGTATAAGAGACAGTTTTTTTTTTTTTTTTTTTTTTTTT…TC
Details: aptamer strand: ATP DNA aptamer (quencher-CACCTGGGGGAGTATTGCGGAGGAAGG + anchor), 100 nM annealed; ATP concentration: 500 uM
Method in brief: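 Five buffer/ATP imaging cycles were run on Cy3-labelled switching-strand clusters on a modified Illumina MiSeq flow-cell, with NaOH stripping and re-annealing between cycles. In each cycle, clusters annealed to 100 nM quencher-labelled ATP aptamer were imaged in selection buffer, then after 15 min with 500 uM ATP at 22 °C. Per cluster, the fluorescence ratio is summed target-cycle over summed buffer-cycle Cy3 intensity, averaged per switch-domain sequence. Only clusters within 100-1000 RFU were kept.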
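Also: ATP exposure 15 min at 22 °C before imaging.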

| Sequence | switch fluorescence ratio |
| --- | --- |
| ATAAGTATGA | 1.01 ± 0.034 |
| ATAAGTCACG | 1.06 ± 0.028 |
| ATAAGTGGCA | 0.944 ± 0.027 |
| ATAAGTGGG | 0.983 ± 0.018 |
| ATAAGTGTGT | 0.958 ± 0.047 |
| ATAAGTGTTA | 0.9898 ± 0.0031 |
| ATAAGTTGAT | 1.01 ± 0.03 |
| ATAAGTTGCT | 0.968 ± 0.024 |
| ATAAGTTTGG | 1.02 ± 0.033 |
| ATAATAATGG | 1 ± 0.037 |
| ATAATAGAGC | 1 ± 0.023 |
| ATAATATGAG | 0.993 ± 0.056 |
| ATAATATTGT | 0.999 ± 0.0022 |
| ATAATCGGCA | 1.01 ± 0.054 |
| ATAATCTGGT | 0.9965 ± 0.0049 |
| ATAATGCTCT | 1.02 ± 0.024 |
| ATAATGGCCT | 1.02 ± 0.026 |
| ATAATGGGGT | 1.026 ± 0.0044 |
| ATAATGTACA | 1.04 ± 0.011 |
| ATAATGTGGG | 0.99618 ± 0.00014 |
| ATAATGTTTT | 1 ± 0.021 |
| ATAATTAATT | 0.958 ± 0.03 |
| ATAATTCTAT | 0.9819 ± 0.008 |
| ATACAAGTCT | 1.03 ± 0.059 |
| ATACACGGCA | 1.11 ± 0.03 |

| Sequence | switch fluorescence ratio |
| --- | --- |
| ATACAGCACC | 1.45 ± 0.048 |
| ATACAGGGGG | 1.02 ± 0.067 |
| ATACATCTAG | 0.996 ± 0.044 |
| ATACCTGAG | 1.53 ± 0.057 |
| ATACGAGGTC | 1.01 ± 0.03 |
| ATACGAGGTG | 1.07 ± 0.035 |
| ATACGCTGGT | 0.9993 ± 0.0042 |
| ATACGGAGGC | 1.03 ± 0.1 |
| ATACGGGAGC | 1.01 ± 0.048 |
| ATACGGGGAT | 1.014 ± 0.0093 |
| ATACGGGGTT | 1.008 ± 0.0032 |
| ATACGGGTTT | 1.024 ± 0.0097 |
| ATACGGTTTT | 0.996 ± 0.026 |
| ATACGTAGTC | 1.07 ± 0.014 |
| ATACTAGGAG | 1 ± 0.026 |
| ATACTAGGGG | 1.01 ± 0.02 |
| ATACTCTGTT | 0.9926 ± 0.0031 |
| ATACTGAGGA | 1.05 ± 0.026 |
| ATACTGGTAG | 1.02 ± 0.047 |
| ATACTGTTAC | 1.359 ± 0.0057 |
| ATACTTAGGT | 1.07 ± 0.1 |
| ATACTTGTAT | 1.0048 ± 0.00054 |
| ATAGAAGAGA | 0.985 ± 0.027 |
| ATAGAAGTTA | 0.985 ± 0.031 |
| ATAGACAGGC | 1.04 ± 0.021 |

| Sequence | switch fluorescence ratio |
| --- | --- |
| ATAGACGCTA | 1.12 ± 0.017 |
| ATAGACGGTT | 1.02 ± 0.048 |
| ATAGACTAGA | 0.9856 ± 0.003 |
| ATAGACTGAG | 0.983 ± 0.012 |
| ATAGACTTCT | 0.9966 ± 0.0064 |
| ATAGACTTTA | 1.04 ± 0.043 |
| ATAGAGTGGG | 0.966 ± 0.019 |
| ATAGATGGTG | 0.987 ± 0.025 |
| ATAGATTGCC | 0.993 ± 0.022 |
| ATAGCAGTTA | 1.02 ± 0.01 |
| ATAGCCGGAC | 1.081 ± 0.008 |
| ATAGCCGGGT | 1.04 ± 0.088 |
| ATAGCGGAGA | 1 ± 0.036 |
| ATAGCTCTTA | 0.9764 ± 0.0074 |
| ATAGCTGGAA | 0.9678 ± 0.0011 |
| ATAGCTTCAC | 1.15 ± 0.015 |
| ATAGGAAGGA | 1.04 ± 0.056 |
| ATAGGAATGG | 1.02 ± 0.023 |
| ATAGGAGGGC | 0.935 ± 0.036 |
| ATAGGAGTGG | 0.964 ± 0.053 |
| ATAGGATGGA | 1 ± 0.029 |
| ATAGGATGTG | 1.01 ± 0.023 |
| ATAGGCCTTG | 1.01 ± 0.031 |
| ATAGGCGGTT | 1.02 ± 0.012 |
| ATAGGGCCAG | 1.06 ± 0.067 |

| Sequence | switch fluorescence ratio |
| --- | --- |
| ATAGGGGCAG | 0.996 ± 0.03 |
| ATAGGGGCTT | 0.9989 ± 0.0085 |
| ATAGGGGGCA | 0.98 ± 0.023 |
| ATAGGGGGTA | 1 ± 0.015 |
| ATAGGGGTTC | 0.994 ± 0.035 |
| ATAGGGTCGG | 1.02 ± 0.063 |
| ATAGGGTTTC | 0.99 ± 0.01 |
| ATAGGTCTGC | 0.975 ± 0.038 |
| ATAGTAAGCC | 1.04 ± 0.031 |
| ATAGTAATCG | 0.988 ± 0.064 |
| ATAGTAGGGG | 0.994 ± 0.045 |
| ATAGTAGTCG | 1.03 ± 0.1 |
| ATAGTATATG | 0.9786 ± 0.0088 |
| ATAGTATTGA | 0.969 ± 0.022 |
| ATAGTGAGTA | 0.996 ± 0.018 |
| ATAGTGCTTG | 0.988 ± 0.046 |
| ATAGTGGCGC | 0.997 ± 0.016 |
| ATAGTTACGC | 1.03 ± 0.022 |
| ATAGTTATTT | 0.989 ± 0.014 |
| ATAGTTGGGG | 1.02 ± 0.045 |
| ATAGTTTTCG | 1 ± 0.034 |
| ATATAAAACG | 0.983 ± 0.018 |
| ATATAAATTT | 1 ± 0.025 |
| ATATAACAGG | 1.03 ± 0.048 |
| ATATAATTTT | 0.979 ± 0.031 |

| Sequence | switch fluorescence ratio |
| --- | --- |
| ATATACCGTC | 1.05 ± 0.028 |
| ATATAGAGG | 1.02 ± 0.019 |
| ATATAGGGTT | 1.04 ± 0.038 |
| ATATAGTCTG | 0.9893 ± 0.0046 |
| ATATATATGG | 1.03 ± 0.035 |
| ATATATCGGG | 0.999 ± 0.013 |
| ATATATTCC | 1.1 ± 0.019 |
| ATATATTTTA | 1.01 ± 0.022 |
| ATATCAATC | 1.02 ± 0.034 |
| ATATCAATGG | 1.058 ± 0.0082 |
| ATATCCCAGG | 4.21 ± 0.64 |
| ATATCCCTCG | 1.01 ± 0.013 |
| ATATCCGGGA | 1.03 ± 0.015 |
| ATATCGGGGG | 1.01 ± 0.081 |
| ATATCGTCGG | 0.988 ± 0.028 |
| ATATCGTGCA | 0.9972 ± 0.006 |
| ATATCTGGCA | 1.02 ± 0.032 |
| ATATGATTGA | 0.9686 ± 0.0044 |
| ATATGCGAAC | 1.1 ± 0.035 |
| ATATGCGGGT | 0.985 ± 0.032 |
| ATATGCTAAG | 0.9935 ± 0.0099 |
| ATATGGAATT | 0.977 ± 0.0046 |
| ATATGGATGT | 0.997 ± 0.029 |
| ATATGGATTA | 1.012 ± 0.0068 |
| ATATGGGGGG | 0.998 ± 0.023 |

| Sequence | switch fluorescence ratio |
| --- | --- |
| ATATGGTCTA | 0.999 ± 0.053 |
| ATATGGTTGA | 0.964 ± 0.049 |
| ATATGTCTGG | 0.953 ± 0.017 |
| ATATGTGGAA | 1.015 ± 0.01 |
| ATATGTGGGA | 1.02 ± 0.033 |
| ATATGTGTGT | 0.995 ± 0.018 |
| ATATGTGTTG | 0.992 ± 0.0066 |
| ATATTACGAA | 1.02 ± 0.035 |
| ATATTAGGGC | 1.02 ± 0.015 |
| ATATTAGGGG | 1.01 ± 0.032 |
| ATATTATTTC | 1.006 ± 0.0058 |
| ATATTCGATT | 0.999 ± 0.027 |
| ATATTCTTCC | 1.96 ± 0.18 |
| ATATTGATGT | 1.01 ± 0.037 |
| ATATTGATTC | 1.01 ± 0.027 |
| ATATTGCTCG | 1.05 ± 0.06 |
| ATATTGCTGA | 0.978 ± 0.078 |
| ATATTGGAGA | 1.13 ± 0.25 |
| ATATTGGGGA | 1.01 ± 0.025 |
| ATATTGGGTT | 0.9708 ± 0.0074 |
| ATATTGTAAC | 0.98 ± 0.013 |
| ATATTGTCCA | 1.02 ± 0.0039 |
| ATATTTAACC | 1.02 ± 0.025 |
| ATATTTCAGG | 0.999 ± 0.027 |
| ATATTTGCGT | 0.974 ± 0.021 |

| Sequence | switch fluorescence ratio |
| --- | --- |
| ATATTTGGAT | 1.03 ± 0.018 |
| ATATTTTACG | 1.02 ± 0.06 |
| ATATTTTAGC | 1.03 ± 0.074 |
| ATATTTTGTA | 0.983 ± 0.036 |
| ATCAAAAGCG | 0.96765 ± 0.00089 |
| ATCAAACGGG | 1.02 ± 0.029 |
| ATCAAATCGA | 1 ± 0.043 |
| ATCAAGGGTT | 0.991 ± 0.025 |
| ATCAAGGTTG | 0.978 ± 0.031 |
| ATCAAGTGAG | 0.998 ± 0.015 |
| ATCAATCTCG | 1.017 ± 0.0093 |
| ATCAATGAAG | 0.975 ± 0.023 |
| ATCAATGTCT | 0.994 ± 0.005 |
| ATCAATTTAG | 1.02 ± 0.038 |
| ATCACAACTG | 0.997 ± 0.15 |
| ATCACAATTT | 1.04 ± 0.017 |
| ATCACATTGG | 1.02 ± 0.071 |
| ATCACGATGG | 1.03 ± 0.019 |
| ATCACGTCTA | 1.024 ± 0.003 |
| ATCACGTTTT | 0.991 ± 0.051 |
| ATCAGAGCCG | 0.98 ± 0.083 |
| ATCAGATAGG | 1 ± 0.026 |
| ATCAGATATG | 0.9974 ± 0.0033 |
| ATCAGCAGGC | 1.6 ± 0.045 |
| ATCAGGAAAA | 1.02 ± 0.071 |

| Sequence | switch fluorescence ratio |
| --- | --- |
| ATCAGGGGGG | 1.02 ± 0.037 |
| ATCAGGGGTA | 1.26 ± 0.34 |
| ATCAGGGGTT | 1.34 ± 0.6 |
| ATCAGGTACG | 1.02 ± 0.033 |
| ATCAGGTTCT | 1.028 ± 0.0031 |
| ATCAGTGCGA | 1.036 ± 0.0081 |
| ATCAGTGGTA | 0.987 ± 0.028 |
| ATCATAGCGG | 1 ± 0.015 |
| ATCATATTAG | 1.01 ± 0.019 |
| ATCATTAATG | 1.01 ± 0.014 |
| ATCATTAGGA | 0.9922 ± 0.0046 |
| ATCATTTAGT | 0.982 ± 0.027 |
| ATCATTTGTC | 1.022 ± 0.0092 |
| ATCATTTGTT | 0.991 ± 0.017 |
| ATCCAAATGG | 1.01 ± 0.033 |
| ATCCAGGGGA | 0.989 ± 0.06 |
| ATCCAGT | 1.036 ± 0.0033 |
| ATCCATACAA | 1.03 ± 0.035 |
| ATCCATTCA | 1.02 ± 0.0094 |
| ATCCGAAGAT | 1.04 ± 0.016 |
| ATCCGAGTCA | 1.07 ± 0.014 |
| ATCCGGGACC | 1.06 ± 0.02 |
| ATCCGGGATG | 1.03 ± 0.021 |
| ATCCGGGGGA | 1.04 ± 0.11 |
| ATCCGTAGGT | 0.995 ± 0.029 |
